The values below come from article PMC6711812.

The target in the assay is PpCESA3 (MbYTH bait and prey fusions) (Physcomitrella patens) (UniProt A9RGN5). The assay can be described thus: two-hybrid.

On to “PpCESA3 (MbYTH bait and prey fusions) (from UniProt A9RGN5 1-1093) (natural protein)”, for which the colony growth as percent of the positive control came to 20%.
